B1: FADD (other, UniProt Q13158 1-208, looked up)
chain: MDPFLVLLHSVSSSLSSSELTELKFLCLGRVGKRKLERVQSGLDLFSMLLEQNDLEPGHTELLRELLASLRRHDLLRRVDDFEAGAAAGAAPGEEDLCAAFNVICDNVGKDWRRLARQLKVSDTKIDSIEDRYPRNLTERVRESLRIWKNTEKENATVAHLVGALRSCQMNLVADLVQEVQQARDLQNRSGAMSPMSWNSDASTSEAS
notes: also called FADD/MORT1
B2: myc-tagged TRADD (other, UniProt Q15628 1-312, looked up)
chain: MAAGQNGHEEWVGSAYLFVESSLDKVVLSDAYAHPQQKVAVYRALQAALAESGGSPDVLQMLKIHRSDPQLIVQLRFCGRQPCGRFLRAYREGALRAALQRSLAAALAQHSVPLQLELRAGAERLDALLADEERCLSCILAQQPDRLRDEELAELEDALRNLKCGSGARGGDGEVASAPLQPPVPSLSEVKPPPPPPPAQTFLFQGQPVVNRPLSLKDQQTFARSVGLKWRKVGRSLQRGCRALRDPALDSLAYEYEREGLYEQAFQLLRRFVQAEGRRATLQRLVEALEENELTSLAEDLLGLTDPNGGLA
notes: also called myc-TRADD

Experiments:
[1] = target: T1, DR5 expressed from an expression construct in 293 cells (immunoprecipitated with Flag M2 antibody affinity … (human, UniProt O14763 52-440)); assay: co-transfection of 293 cells, Flag M2 immunoprecipitation, immunoblot with polyclonal antibody to FADD
T1 construct: The text says only 'the indicated expression constructs'; also called Death Domain Containing Receptor 5
Excerpt: (§1) 293 cells were co-transfected with the indicated expression constructs using calcium phosphate precipitation.

[2] = target: T1, DR5 expressed from an expression …; assay: co-transfection of 293 cells, Flag M2 immunoprecipitation, immunoblot with HRP-conjugated antibody to myc
Excerpt: as §1

Binder	binding result [1]	binding result [2]
B1	no binding	
B2		no binding

Source: patent US20080248046A1 (Human Genome Sciences, published 2008)
